Data from the nanobody polyreactivity screen of Harvey et al. (2022).

Experiment: yeast display, Sf9 membrane polyspecificity reagent, FACS + sequencing; frameworks hold sequencing errors
Method in brief: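 A synthetic nanobody library was expressed on Saccharomyces cerevisiae BJ5465 by galactose induction for 36–48 hours. The library was stained for 1 hour at 4 °C with 10% biotinylated, detergent-solubilized Sf9 membrane reagent and enriched with streptavidin microbeads before FACS. Low and high (top ~1%) gates were set on anti-HA fluorescence for expression and streptavidin fluorescence for reagent binding, and each polyreactivity label reflects the gate of origin.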

Sequence | polyreactivity (PSR sort gate)
QVQLVESGGGLVQAGGSLRLSCAASGSILQYYAMGWYRQTPGKERELVAAITSGGSTYYADSVKGRFTISRDNAKNTVYLQMNSLKPEDTAVYYCAKVYRRAQYDYCGQGTQVTVSS | low polyreactivity
QVQLVESGGGLVQAGGSLRLSCAASGSILRLYVMGWYRQAPGKERELVADISDRGGSTYYADSVKGRFTISRDNAKNTVYLQLNSLKPEDTAVYYCDKDSETAGATYTEYDYWGQGTQVTVSS | low polyreactivity
QVQLVESGGGLVQAGGSLRLSCAASGSILRSNAMGWYRQAPGKERELVATITNSGGSTYADSVKGCFTISRDNANNTVYLQMNSLKPEDTAVYYCAKAGAGESIAKYDYWGQGTQVTVSS | low polyreactivity
QVQLVESGGGLVQAGGSLRLSCAASGSILSDNAMGWYRQAPGKERELVASIRSGDITKYADSVKGRFTFSRDNAKNTVYLQMNSLKPEDTAVYYCASAGRVLYTRKYYGWRYLNDYWGQGTQVTVSS | low polyreactivity
QVQLVESGGGLVQAGGSLRLSCAASGSILSFYAMGWYRQAPGKERELVATISRRGGSTYYADSVKGRFTISRDNAKNTVYLQMNSLKPEDTAVYYCNKPGLSAWTQSSQYEYDYWGQGTQVTVSS | high polyreactivity
QVQLVESGGGLVQAGGSLRLSCAASGSILSRYAMGWYRQAPGKERELVAAISSRGGSTYYADSVKGRFTISRDNAKNTVYLQMNSLKPEDTAVYYCAADPVGEVRVYARGYSWGQGTQVTVSS | high polyreactivity
QVQLVESGGGLVQAGGSLRLSCAASGSILSVNAMGWYRQAPGKERELVAAINWSGGSTYYADSVKGRFTISRDNAKNTVYLQMNSLKPEDTAVYYCAARWRYSYVGDFDYWGQGTQVTVSS | high polyreactivity
QVQLVESGGGLVQAGGSLRLSCAASGSILSYYAMGWYRQAPGKERELVAAISKTGGSTYYADSVKGRFTISRDNANNTVYLHMNSLKPEVTAVYYCAAVDNIGRYEYWGQGTQVTVSS | high polyreactivity
QVQLVESGGGLVQAGGSLRLSCAASGSILTGNAMGWYRPAPGKERELVAAISAGGTRTYYADSVKGRFTISRDNAKNTVYLQMNSLKPEDTAVYYCAADSSKRIGYDYWGQGTQVTVSS | high polyreactivity
QVQLVESGGGLVQAGGSLRLSCAASGSILTLYSMGWYRQAPGKERELVAAISSTGGRTYYADSVKGRFTISRDNAKNTVYVQMNSLKPEDTAFYYCAARGWGGLRSYGYYYWGQGTQVTVSS | high polyreactivity
QVQLVESGGGLVQAGGSLRLSCAASGSILVEYAMGWYRQAPGKERELVAAISSNGGSTYYADSVKGRFTISRDNAKNTVYLQMNSLKPEDTAVYYCATRQSWSDYYLNVDYDYWGQGTKVTVSS | low polyreactivity
QVQLVESGGGLVQAGGSLRLSCAASGSILVSYAMGWYRPAPGKERELVAAITSGGRTKYADSVKGRFTISRDNAKNTVYLQMNSLKPEDTAVYYCAADDPLSYQFDYWGQGTQVTVSS | high polyreactivity
QVQLVESGGGLVQAGGSLRLSCAASGSILYRYAMGWSRPAPGKERELDAAISYNGGRTYYADSVKGRFSISRDNAKNTVYLQMNSLKPEDTAVYYCNAAGRDDAYDYWGQGTQVTVSS | high polyreactivity
QVQLVESGGGLVQAGGSLRLSCAASGSILYRYAMGWYRQAPGKERELVAGISKTGSSTYYADSVKGRFTISRDNAKNTVYLQMNSLKPEDTAVYYCNVRHGYSGKDYRYDYWGQGTQVTVSS | low polyreactivity
QVQLVESGGGLVQAGGSLRLSCAASGSILYVNAMGWYRQAPGKERELVASITDGGNTYYADSVKGRFTISRDNAKNTVYLQMNSLKPEDTAVYYCNAVGRIKVDYGLEYWGQGTQVTVSS | low polyreactivity
QVQLVESGGGLVQAGGSLRLSCAASGSILYVYAMGWYRQAPGKERELVAVITSGGSTNYADSVKGRFTISRDNAKNTVYLQMNSLKPEDTAVYYCAADPYSVYGGDYWGQGTQVTLSS | low polyreactivity
QVQLVESGGGLVQAGGSLRLSCAASGSILYYYAMGWYRQAPVKERELVATITSGGTTNYADSVKGRFTISRDNAKNTVYLQMISLKPEDTAVYYCAADWAWDTKSAPAYPRAYDYWGPGTQVTVSS | low polyreactivity
